Assays:
[1] = target: T1, Her2-Fc D1-D2 (MR067); experiment: ELISA, HER2-Fc construct captured by anti-huFc, Fab from 1 ug/ml in 5-fold steps, HRP anti-kappa/lambda
T1 construct: also called ErbB2-Fc Domains 1-2
T1 chain: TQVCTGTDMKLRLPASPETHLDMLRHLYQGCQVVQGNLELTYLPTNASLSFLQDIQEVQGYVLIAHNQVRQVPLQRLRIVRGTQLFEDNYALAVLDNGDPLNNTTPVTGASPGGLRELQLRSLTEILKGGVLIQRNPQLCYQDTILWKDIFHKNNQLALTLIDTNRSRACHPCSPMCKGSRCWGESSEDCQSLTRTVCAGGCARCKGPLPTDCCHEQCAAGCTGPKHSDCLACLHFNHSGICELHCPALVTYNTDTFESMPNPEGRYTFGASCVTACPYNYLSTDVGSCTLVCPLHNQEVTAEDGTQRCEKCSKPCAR
Method: (§1) Nunc Maxisorp ELISA plates were coated with 5 ug/ml rabbit pAbs anti-human Fc gamma in PBS overnight at 4 degrees. Plates were washed one time with PBST (PBS, 0.05% tween 20) and blocked with 1% BSA in PBS for one hour at room temperature. Plates were washed one time with PBST and incubated with 1 ug/ml HER2-Fc fusion protein for one hour. Plates were washed three times with PBST and dilutions of Fab (four 5-fold serial dilutions, starting at 1 ug/ml) in block were added and incubated for ninety minutes. Plates were washed three times with PBST and incubated with 1:2,000 HRP-labelled goat anti-human kappa (Southern Biotech cat#2060-05) and HRP-labelled goat anti-human lambda (Southern Biotech cat#2070-05) in block for one hour at room temperature. Plates were washed three times with PBST, developed with TMB solution for 5 minutes, and stopped with equal volume 1 N H₂SO₄. Absorbance values were read at 450 nm.

[2] = target: T2, Her2-Fc D1 (MR066); experiment: as above
T2 construct: also called ErbB2-Fc Domain 1
T2 chain: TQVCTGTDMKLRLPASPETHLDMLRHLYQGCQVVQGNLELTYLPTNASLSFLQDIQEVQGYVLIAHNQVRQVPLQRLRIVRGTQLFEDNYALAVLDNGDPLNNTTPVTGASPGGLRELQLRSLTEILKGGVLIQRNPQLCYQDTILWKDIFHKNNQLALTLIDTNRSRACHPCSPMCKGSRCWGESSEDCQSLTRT
Method: as §1

[3] = target: T3, Her2-Fc D1-D2-D3-D4 (MR069); experiment: as above
T3 construct: made in house, kept apart from the R&D Systems HER2-Fc; also called ErbB2-Fc full length ECD
Method: as §1

[4] = target: T4, Her2-Fc D1-D2-D3 (MR068); experiment: as above
T4 construct: also called ErbB2-Fc Domains 1-3
Method: as §1

[5] = target: T5, murine HER2-Fc (mouse; human, UniProt P70424 23-653); experiment: ELISA on coated muHER2-Fc, HRP anti-human kappa; the number is C of the printed 4-P fit y=(A-D)/(1+(x/C)^B)+D (A 0.002, B 0.792, D 0.827, R^2 0.999); x axis: Fab equivalent concentration; C lies beyond the last point (about 14000 ng/ml, OD about 0.28): extrapolated by the fit
T5 construct: extracellular domain; Bought from R&D Systems; also called murine ErbB2-Fc; not shown: Fc fragment of human IgG1

[6] = target: T6, human HER2/ErbB2 on cells (human, UniProt P04626 23-1255); experiment: flow cytometry on CHO cells expressing human HER2
T6 construct: whole, on cells; also called hHER2/ErbB2; wild type HER2/ErbB
Method: CHO cells (Chinese Hamster Ovary cells) stably transfected with hHER2 expression vector and selected in G418 containing medium. G418 resistant clones were pooled and split 24 hours prior to the setup of the assay to obtain 70% confluent monolayer. Routinely, CHO cell line was maintained within 20 passages. Cells were lifted with cell dissociation buffer (Gibco catalog #13151-014), counted, washed and adjusted to 1×10⁶ cells/ml and one ml of cells were then added to each tube (12×75 mm tube Falcon catalog #352054). Cells were pelleted and supernatant removed by centrifugation at 1200 rpm for 5 min and 100 μl of diluted antibodies were then added to the cell pellet. Purified Fabs were tested at a starting concentration of either 210 or 60 μg/ml with 1:3 dilutions in FACS buffer, down to 0.001 μg/ml. FACS buffer used throughout the assay was PBS (without Ca^{+±}/Mg^{+±}) containing 1% BSA (Sigma catalog #A-7906) and 0.1% Sodium Azide (Sigma catalog #S2002). Samples were allowed to incubate on ice for 1 hour and 15 minutes then were washed with 2 ml FACS buffer and centrifuged at 1200 rpm for 5 minutes at 4° C. The supernatant was aspirated and 100 μl of the secondary detection antibody was added to each corresponding tube in FACS buffer. Samples were then incubated for 30 minutes on ice, in the dark. Cells were washed as described above, then, re-suspended in 250 μl FACS buffer per tube/sample.
A full titration was performed on MCF7 and SKBR3 tumor cell lines, and human Her2-CHO and murine Her2-CHO cell lines in order to calculate an approximate EC50 (data not shown, see summary in Table 1).

[7] = target: T7, human HER2-Fc (human, UniProt P04626 23-652); experiment: ELISA on coated huHER2-Fc, HRP anti-human kappa; the number is C of the printed 4-P fit y=(A-D)/(1+(x/C)^B)+D (A -0.004, B 0.92, D 0.931, R^2 1); x axis: Fab equivalent concentration; last point about 13000 ng/ml at OD about 0.73, upper plateau not reached by the points
T7 construct: Bought from R&D Systems: homodimeric fusion of the HER2 extracellular domain and human IgG1 Fc; also called human ErbB2-Fc; rhErbB2-Fc; not shown: Fc fragment of human IgG1

[8] = target: T8, EGFR on MDA-MB-468 cells (UniProt P00533 25-1210, limits assumed); experiment: FACS on MDA-MB-468 cells (EGFR+, HER2-)
T8 construct: whole, on cells; also called MDA-MB-468 tumor cell line (EGFR+, HER2-)

[9] = target: T7, human HER2-Fc; experiment: ELISA on coated huHER2-Fc, HRP anti-human kappa; the number is C of the printed 4-P fit (A 0.008, B 1.216, D 0.834, R^2 1); x axis: Fab equivalent concentration
[10] = target: T5, murine HER2-Fc; experiment: ELISA on coated muHER2-Fc, HRP anti-human kappa; the number is C of the printed 4-P fit (A -0.002, B 0.6, D 1.035, R^2 1); x axis: Fab equivalent concentration; C lies beyond the last point (about 120 ng/ml, OD about 0.4): extrapolated by the fit
[11] = target: T6, human HER2/ErbB2 on cells; experiment: FACS on HER2-expressing cells
[12] = target: T7, human HER2-Fc; experiment: ELISA on coated HER2-Fc
Method: Human and murine ErbB2-Fc were obtained from R&D Systems. Wells of 96-well plates were coated with 2 ug/ml or 0.2 ug/ml of human or murine HER2-Fc by incubation overnight at 4-8° C. with either of these six proteins (80 ul/well of a 0.2 or 2 ug/ml solution in PBS). Wells were emptied, filled completely with a solution of PBS with 1% BSA (blocking buffer) and incubated at room temperature for 1 hour. Wells were emptied, washed twice PBS containing 0.05% Tween 20 (PBST) and filled with the samples (80 ul/well of 3× dilution series of the standard and supernatants in blocking buffer) prepared in another 96-well plate. After a 2-hour incubation at room temperature, the wells were emptied, washed three times with PBST and filled with a solution of HRP-conjugated goat pAbs anti-human kappa chain (80 ul/well of a 2000-fold dilution in blocking buffer). After 1-hour incubation, the wells were emptied and filled with a solution of HRP substrate prepared freshly. The color was left to develop for 3 minutes and was stopped by addition of an equal volume of 1N H₂SO₄. Absorbance was measured at 450 nm using a Plate Reader (SpectraMax, Molecular Devices). The data was processed and graphs were created using SoftMax Pro software.

Row | Binder | binding result [1] | binding result [2] | binding result [3] | binding result [4] | EC50 [5] [µg/mL] | EC50 [6] [nM] | EC50 [7] [µg/mL] | binding result [8] | EC50 [9] [µg/mL] | EC50 [10] [µg/mL] | EC50 [11] [nM] | EC50 [12] [nM]
1 | BIIB71F10 Fab (Fab, V domains shown, Soluble human Fab; also called Fab 71F10) VH: EVQLLESGGGLVQPGGSLRLSCAASGFTFSSYGMVWVRQAPGKGLEWVSSISSSGGLTWYADSVKGRFTISRDNSKNTLYLQMNSLRAEDTAVYYCASPPGIAVARDYWGQGTLVTVSS VL: DIQMTQSPSSLSASVGDRVTITCRASQGISNYLAWYQQKPGKVPKLLIYAASTLQSGVPSRFSGSGSGTDFTLTISSLQPEDVATYYCQKYNSALLTFGGGTKVEIK | binds | no binding (tested: 1 ug/ml) | binds | binds | 31.8 | 60 | 3.43 | no binding | – | – | – | –
2 | BIIB71F10 Mab (BIIB71F10-134, 71F10 IgG) (antibody, V domains shown, IgG1; also called BIIB71-F10 antibody) VH: EVQLLESGGGLVQPGGSLRLSCAASGFTFSSYGMVWVRQAPGKGLEWVSSISSSGGLTWYADSVKGRFTISRDNSKNTLYLQMNSLRAEDTAVYYCASPPGIAVARDYWGQGTLVTVSS VL: DIQMTQSPSSLSASVGDRVTITCRASQGISNYLAWYQQKPGKVPKLLIYAASTLQSGVPSRFSGSGSGTDFTLTISSLQPEDVATYYCQKYNSALLTFGGGTKVEIKR | – | – | – | – | – | – | – | – | 0.00634 | 0.248 | 2 | 0.07

— patent US20130101549A1 (Biogen, published 2013)
